Assay results taken from patent EP2718311B1 (TLA Targeted Immunotherapies AB, dated 2018).
Blank lines part the entries; values can stand above or below the molecule they belong to.

Tests used:
hCCR5 (human) [1] = molecular target: hCCR5 (human) (UniProt P51681); assay: cell-based or functional assay
hCCR5 (human) [2] = molecular target: hCCR5 (human) (UniProt P51681); assay: blood of a healthy donor passed through a column of biotinylated RANTES coupled matrix; flow cytometry for CCR1, 3 and 5-expressing cells
[3] = molecular target: T1, CCR1 on human peripheral blood cells (human) (UniProt P32246); assay: as above
T1 sequence (looked up): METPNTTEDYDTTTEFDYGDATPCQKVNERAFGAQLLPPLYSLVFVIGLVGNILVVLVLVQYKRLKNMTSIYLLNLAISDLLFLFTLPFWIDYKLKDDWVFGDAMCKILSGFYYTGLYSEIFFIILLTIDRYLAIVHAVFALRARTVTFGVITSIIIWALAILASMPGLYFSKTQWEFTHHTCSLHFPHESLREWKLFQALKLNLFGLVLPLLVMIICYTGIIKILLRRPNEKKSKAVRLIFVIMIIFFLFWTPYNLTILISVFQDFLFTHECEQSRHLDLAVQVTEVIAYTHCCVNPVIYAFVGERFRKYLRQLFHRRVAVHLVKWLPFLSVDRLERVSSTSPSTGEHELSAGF

hCCR3 (human) [4] = molecular target: hCCR3 (human) (UniProt P51677); assay: as above
Chain of hCCR3 (human) (P51677 whole entry): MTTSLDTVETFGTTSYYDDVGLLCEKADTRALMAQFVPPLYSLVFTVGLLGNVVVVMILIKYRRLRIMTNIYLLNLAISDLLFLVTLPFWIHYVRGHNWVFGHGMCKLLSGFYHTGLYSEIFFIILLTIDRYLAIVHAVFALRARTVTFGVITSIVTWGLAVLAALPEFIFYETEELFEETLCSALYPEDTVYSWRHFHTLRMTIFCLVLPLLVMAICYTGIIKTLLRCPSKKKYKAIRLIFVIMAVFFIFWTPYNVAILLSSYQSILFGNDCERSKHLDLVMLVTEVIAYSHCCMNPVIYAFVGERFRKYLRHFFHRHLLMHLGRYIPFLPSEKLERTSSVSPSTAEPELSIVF

hCCR9 (human) = hCCR9 (human) (UniProt P51686); assay: cell-based or functional assay
Chain of hCCR9 (human) (P51686 whole entry): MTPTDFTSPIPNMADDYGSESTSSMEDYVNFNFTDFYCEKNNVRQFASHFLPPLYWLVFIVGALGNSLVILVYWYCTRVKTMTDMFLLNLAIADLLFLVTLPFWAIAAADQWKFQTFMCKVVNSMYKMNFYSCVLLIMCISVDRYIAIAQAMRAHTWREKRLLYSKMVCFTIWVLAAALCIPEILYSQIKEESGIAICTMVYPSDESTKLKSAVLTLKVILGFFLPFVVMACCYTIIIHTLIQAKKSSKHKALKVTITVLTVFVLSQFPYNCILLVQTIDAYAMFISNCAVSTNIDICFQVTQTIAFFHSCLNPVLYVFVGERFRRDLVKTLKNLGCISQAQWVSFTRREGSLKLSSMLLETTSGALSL

[5] = molecular target: CCR2 on human peripheral blood cells (monocytes, T cells) (human) (UniProt P41597); assay: blood of three healthy donors passed through a column of bMCP-1 coupled matrix; flow cytometry before and after
[6] = molecular target: CCR2 on human peripheral blood cells (monocytes, T cells) (human) (UniProt P41597); assay: flow cytometry, labelled MCP-1 on fixed blood leukocytes of healthy donors, 30 min at 4 °C
hCXCR3 (human) = hCXCR3 (human) (UniProt P49682); assay: cell-based or functional assay
Chain of hCXCR3 (human) (P49682 whole entry): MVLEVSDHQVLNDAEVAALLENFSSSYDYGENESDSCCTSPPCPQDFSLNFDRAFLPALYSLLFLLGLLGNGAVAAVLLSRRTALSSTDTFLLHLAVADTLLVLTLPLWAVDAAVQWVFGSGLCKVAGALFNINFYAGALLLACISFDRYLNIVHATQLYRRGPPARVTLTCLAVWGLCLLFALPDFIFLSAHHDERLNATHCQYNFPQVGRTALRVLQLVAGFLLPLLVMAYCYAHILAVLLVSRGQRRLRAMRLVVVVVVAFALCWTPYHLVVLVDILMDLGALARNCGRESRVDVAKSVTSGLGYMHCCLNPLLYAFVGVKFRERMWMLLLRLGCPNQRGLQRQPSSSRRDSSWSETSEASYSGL

hCCR6 (human) = hCCR6 (human) (UniProt P51684); assay: cell-based or functional assay
Chain of hCCR6 (human) (P51684 whole entry): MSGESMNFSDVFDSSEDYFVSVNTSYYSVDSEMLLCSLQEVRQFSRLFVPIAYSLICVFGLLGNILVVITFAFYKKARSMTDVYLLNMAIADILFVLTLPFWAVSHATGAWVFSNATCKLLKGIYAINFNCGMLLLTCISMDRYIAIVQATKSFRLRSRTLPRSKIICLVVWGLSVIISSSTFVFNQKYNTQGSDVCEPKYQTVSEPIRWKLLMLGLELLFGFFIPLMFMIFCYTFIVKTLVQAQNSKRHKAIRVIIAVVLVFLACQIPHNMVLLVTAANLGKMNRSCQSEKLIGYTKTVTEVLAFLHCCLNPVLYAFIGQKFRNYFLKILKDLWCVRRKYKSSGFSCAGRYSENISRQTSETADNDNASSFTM

hCCR3 (human) [7] = molecular target: hCCR3 (human) (UniProt P51677); assay: cell-based or functional assay
hCCR2b = molecular target: T2, hCCR2b (human, UniProt P41597 1-374); assay: cell-based or functional assay
T2 chain: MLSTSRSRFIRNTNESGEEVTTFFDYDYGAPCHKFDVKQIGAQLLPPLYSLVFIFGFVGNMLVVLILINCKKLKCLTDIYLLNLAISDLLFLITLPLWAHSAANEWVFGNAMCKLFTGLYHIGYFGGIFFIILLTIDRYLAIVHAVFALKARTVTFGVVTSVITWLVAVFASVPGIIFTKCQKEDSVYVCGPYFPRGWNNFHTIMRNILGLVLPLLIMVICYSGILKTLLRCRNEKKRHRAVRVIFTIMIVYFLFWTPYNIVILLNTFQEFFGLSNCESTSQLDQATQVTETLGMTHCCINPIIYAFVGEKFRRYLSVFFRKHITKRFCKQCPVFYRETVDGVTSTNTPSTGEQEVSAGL

Chain of hCCR5 (human) (P51681 whole entry): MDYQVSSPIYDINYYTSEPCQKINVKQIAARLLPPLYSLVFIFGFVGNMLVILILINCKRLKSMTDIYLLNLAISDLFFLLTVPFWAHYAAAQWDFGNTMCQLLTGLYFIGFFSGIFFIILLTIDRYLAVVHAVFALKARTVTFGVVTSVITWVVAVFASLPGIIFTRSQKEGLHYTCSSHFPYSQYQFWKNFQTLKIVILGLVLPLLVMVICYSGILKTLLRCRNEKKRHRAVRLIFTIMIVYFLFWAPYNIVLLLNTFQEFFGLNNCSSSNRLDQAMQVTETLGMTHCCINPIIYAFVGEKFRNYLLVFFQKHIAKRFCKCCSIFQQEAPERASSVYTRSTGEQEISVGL

remaining levels of monocytes after column passage [5]: 20 to 30%
percent of monocytes that bound the chemokine [6]: 90%
Molecule: biotinylated MCP-1 (from UniProt P13500 24-99) (ligand)

agonist activity in an Aequorin assay, EC50 (hCXCR3 (human)): 0.7 nM
Molecule: recombinant native ITAC (from UniProt O14625 22-94) (ligand)

activity in an Aequorin assay (partial agonist), EC50 (hCCR2b): 23.5 nM
B1: recombinant native MCP-2 (ligand, human, UniProt P80075 24-99, looked up)
chain: QPDSVSIPITCCFNVINRKIPIQRLESYTRITNIQCPKEAVIFKTKRGKEVCADPKERWVRDSMKHLDQIFQNLKP

The remaining lines, values behind:

Molecule: biotinRANTES (CCL5) (from UniProt P13501 24-91) (ligand)
agonist activity in an Aequorin assay, EC50 (hCCR5 (human) [1]): 0.5 nM
reduction of chemokine receptor-expressing cells by the column (hCCR5 (human) [2]): 20%
reduction of chemokine receptor-expressing cells by the column [3]: 20%
reduction of chemokine receptor-expressing cells by the column (hCCR3 (human) [4]): 20%

Molecule: biotinTECK(Met to Nleu substitution) (from UniProt O15444 25-97) (ligand)
agonist activity in an Aequorin assay, EC50 (hCCR9 (human)): 63.6 nM

Molecule: recombinant native IP-10 (from UniProt P02778 22-98) (ligand)
agonist activity in an Aequorin assay, EC50 (hCXCR3 (human)): 4.4 nM

Molecule: recombinant native MIP-3α (from UniProt P78556 27-96) (ligand)
agonist activity in an Aequorin assay, EC50 (hCCR6 (human)): 1 nM

Molecule: recombinant native TECK (from UniProt O15444 24-150) (ligand)
agonist activity in an Aequorin assay, EC50 (hCCR9 (human)): 67.9 nM

Molecule: recombinant native eotaxin (from UniProt P51671 24-97) (ligand)
activity in an Aequorin assay (agonist), EC50 (hCCR3 (human) [7]): 10.7 nM
